Legend:
[1] = system: patients with diverse metastatic cancers; assay: Phase I trial and phase II extension in diverse epithelial cancers: related adverse events (CTCAE v 4.0); assay type: in vivo, human
[2] = system: patients with diverse metastatic cancers; assay: Phase I trial and phase II extension in diverse epithelial cancers: best response and time to progression; assay type: in vivo, human
Source text: The present Example reports the initial Phase I trial of 25 patients (pts) who had failed multiple prior therapies (some including topoisomcrasc-I/II inhibiting drugs), and the ongoing Phase II extension now reporting on 69 pts, including in colorectal (CRC), small-cell and non-small cell lung (SCLC, NSCLC, respectively), triple-negative breast (TNBC), pancreatic (PDC), esophageal, gastric, prostate, ovarian, renal, urinary bladder, head/neck and hepatocellular cancers. Patients were refractory/relapsed after standard treatment regimens for metastatic cancer. […]
A total of 69 patients (including 25 patients in Phase I) with diverse metastatic cancers having a median of 3 prior therapies were reported. Eight patients had clinical progression and withdrew before CT assessment. Thirteen CT-assessable pancreatic cancer patients were separately reported. The median TTP (time to progression) in PDC patients was 11.9 wks (range 2 to 21.4 wks) compared to median 8 wks TTP for the preceding last therapy.
A total of 48 patients with diverse cancers had at least 1 CT-assessment from which Best Response and Time to Progression (TTP) were determined. […] For SCLC (small cell lung cancer), of 4 assessable patients there were 2 PR, 0 SD and 2 PD for a total response of 2/4 (50%). For CRC (colorectal cancer), of 18 assessable patients there were 1 PR, 11 SD and 6 PD for a total response of 12/18 (67%). For esophageal cancer, of 4 assessable patients there were 1 PR, 2 SD and 1 PD for a total response of 3/4 (75%). For NSCLC (non-small cell lung cancer), of 5 assessable patients there were 1 PR, 3 SD and 1 PD for a total response of 4/5 (80%). Over all patients treated, of 48 assessable patients there were 7 PR, 27 SD and 14 PD for a total response of 34/48 (71%).

patients with mSCLC [3] = conditions: in vivo
Description: (§1) Doses of 8 or 10 mg/kg were given on days 1 and 8 of a 21-day cycle, with contingencies to delay (maximum of 2 weeks). Toxicities were managed by supportive hematopoietic growth-factor therapy for blood cell reduction, dose delays and/or modification as specified in the protocol (e.g., 25% of prior dose), or by standard medical practice. Treatment was continued until disease progression, initiation of alternative anticancer therapy, unacceptable toxicity, or withdrawal of consent.
(§2) Safety evaluations were conducted during scheduled visits or more frequently if warranted.
(§3) Statistical Analyses—The data included in the analyses were derived from patients enrolled from November 2013 to June 2016, with follow-up through Jan. […] The frequency and severity of adverse events (AEs) were defined by MedDRA Preferred Term and System Organ Class (SOC) version 10, with severity assessed by NCI-CTCAE v4.03.

patients with mSCLC [4] = conditions: 53 mSCLC patients (Gray et al., 2017); cited from earlier work
patients with mSCLC [5] = assay: Phase I/II trial (NCT01631552), mSCLC: safety and tolerability; conditions: N = 53
Description: as §1, §2, §3

[6] = In vivo animal studies: release of SN-38 from the conjugate
Source text: Plasma CEA and CA19-9 correlated with responses.

[7] = system: patients with metastatic urothelial cancer (mUC); conditions: 10 mg/kg, cited from earlier work
[8] = 48 assessable pts (excluding PDC)
[9] = 48 assessable pts (excluding PDC), listed as hRS7-SN-38
[10] = CRC, person, after 10 months of treatment
[11] = esophageal cancer, 4 assessable patients

## sacituzumab govitecan
[1]; 49 pts reporting related AE
  Diarrhea ≥G3: 9%
  Fatigue ≥G3: 9%
  Nausea ≥G3: 0%
  Neutropenia ≥G3: 28%
  Vomiting ≥G3: 2%
[1]; related AE, N = 47
  Abdominal pain, Grade 3, patients: 0
  Abdominal pain, Grade 4, patients: 0
  Abdominal pain, TOTAL: 11%
  Alopecia, TOTAL: 40%
  Anemia, Grade 3, %: (4%)
  Anemia, Grade 3, patients: 2
  Anemia, Grade 4, patients: 0
  Anemia, TOTAL: 13%
  Deep vein thrombosis, Grade 3, %: (2%)
  Deep vein thrombosis, Grade 3, patients: 1
  Deep vein thrombosis, Grade 4, patients: 0
  Deep vein thrombosis, TOTAL: 2%
  Diarrhea, Grade 3, %: (9%)
  Diarrhea, Grade 3, patients: 4
  Diarrhea, Grade 4, patients: 0
  Diarrhea, TOTAL: 47%
  Dysgeusia, Grade 3, patients: 0
  Dysgeusia, Grade 4, patients: 0
  Dysgeusia, TOTAL: 15%
  Fatigue, Grade 3, %: (9%)
  Fatigue, Grade 3, patients: 4
  Fatigue, Grade 4, patients: 0
  Fatigue, TOTAL: 55%
  Febrile Neutropenia, Grade 3, %: (2%)
  Febrile Neutropenia, Grade 3, patients: 1
  Febrile Neutropenia, Grade 4, %: 4%
  Febrile Neutropenia, Grade 4, patients: 2
  Febrile Neutropenia, TOTAL: 6%
  Hypokalemia, Grade 3, %: (2%)
  Hypokalemia, Grade 3, patients: 1
  Hypokalemia, Grade 4, patients: 0
  Hypokalemia, TOTAL: 11%
  Nausea, Grade 3, patients: 0
  Nausea, Grade 4, patients: 0
  Nausea, TOTAL: 53%
  Neutropenia, Grade 3, %: (24%)
  Neutropenia, Grade 3, patients: 11
  Neutropenia, Grade 4, %: 4%
  Neutropenia, Grade 4, patients: 2
  Neutropenia, TOTAL: 43%
  Pyrexia, Grade 3, patients: 0
  Pyrexia, Grade 4, patients: 0
  Pyrexia, TOTAL: 13%
  Vomiting, Grade 3, %: (2%)
  Vomiting, Grade 3, patients: 1
  Vomiting, Grade 4, patients: 0
  Vomiting, TOTAL: 32%
  WBC Decrease, Grade 3, %: (2%)
  WBC Decrease, Grade 3, patients: 1
  WBC Decrease, Grade 4, patients: 0
  WBC Decrease, TOTAL: 6%
[2]; [8]
  Partial response (PR), % of patients: 15%
  Stable disease (SD), % of patients: 56%
  Stable disease (SD), number of patients: 27
  Total response [PR+SD], % of patients: 79%
  Total response [PR+SD], number of patients: 38
[2]; [9]
  Total response [PR+SD], % of patients: 71%
  Total response [PR+SD], number of patients: 34/48
[2]; CRC, 12/18
  Total response [PR+SD]: 67%
[2]; CRC, 18 assessable patients
  PD, number of patients: 6
  PR, number of patients: 1
[2]; [10]
  CEA after treatment (decrease from 781), single patient: 26.5 ng/mF
  Maximum reduction in target lesions, single patient: 65%
[2]; CRC, person, starting dose 8 mg/kg
  Reduction in target lesions on first CT assessment (PR), single patient: 37%
[2]; NSCLC, 4/5
  Total response [PR+SD]: 80%
[2]; NSCLC, 5 assessable patients
  PD, number of patients: 1
  PR, number of patients: 1
[2]; NSCLC, person, after 6th dose
  Primary target lesion size at first CT (from 5.6 cm), single patient: 3.2 cm
[2]; SCLC, 2/4
  Total response [PR+SD]: 50%
[2]; SCLC, 4 assessable patients
  PD, number of patients: 2
  PR, number of patients: 2
[2]; SCLC, person, 12 mg/kg reduced to 6.8 mg/kg, after two months
  Reduction in target lesions, single patient: 38%
[2]; TNBC, 6/8
  Total response [PR+SD]: 75%
[2]; TNBC, 8 assessable patients
  PD, number of patients: 2
  PR, number of patients: 2
[2]; all, 48 assessable patients
  PD, number of patients: 14
  PR, number of patients: 7
[2]; esophageal cancer, 3/4
  Total response [PR+SD]: 75%
[2]; [11]
  PD, number of patients: 1
  PR, number of patients: 1
Patients with mSCLC [3]
  Anemia, grade 3 or 4: 8%
  Diarrhea, grade 3 or 4: 9%
  Fatigue, grade 3 or 4: 13%
  Hyponatremia, grade 3 or 4: 8%
  Increased alkaline phosphatase, grade 3 or 4: 8%
  Infusion-related reactions: No infusion-related reactions were reported
  Neutropenia, grade 3 or 4: 34%
Patients with mSCLC [3]; 8 mg/kg
  Patients with dose reduction: 13%
Patients with mSCLC [4]
  Median OS: 7.5 months
  Median PFS: 3.7 months
  Median response duration: 5.7 months
  ORR: 14%
  Patients with tumor shrinkage from baseline: Sixty
Patients with mSCLC [5]
  Treatment-related deaths: No treatment-related deaths were observed
[6]
  SN-38 released from the conjugate daily: 50%
[7]; 35 mUC patients
  Complete responses (CR), number: 2
  Confirmed partial responses (PR), number: 6
  Objective response rate (ORR): 29%
  PR pending confirmation, number: 2
  Treated patients with a reduction in tumor size: Seventy-four
[7]; mUC
  ORR in patients with liver metastases: 25%

— patent publication US20210316003A1 (Immunomedics, Inc., priority 2020, published 2021)
